# From patent US20260265334A1, “STAPLED PEPTIDES” (THE FLOREY INSTITUTE OF NEUROSCIENCE AND MENTAL HEALTH, priority 2023, published 2026)
# Read-outs that look alike come from different tables or passages of the source. Bridge positions count the residues as written; N and C are the ends. Square brackets hold non-standard residues; d marks the D form. Ends that are not written are not given here. Peptide text beside a SMILES is read from it. I, II: the chains in the order shown. αMeF = C[C@](N)(Cc1ccccc1)C(=O)O; S5 = C=CCCC[C@](C)(N)C(=O)O; αMeC = C[C@](N)(CS)C(=O)O
# T1: RXFP3 (Homo sapiens, UniProt Q9NSD7)
# T1 construct: expressed in transfected cells
# T1 sequence (Q9NSD7 1-469): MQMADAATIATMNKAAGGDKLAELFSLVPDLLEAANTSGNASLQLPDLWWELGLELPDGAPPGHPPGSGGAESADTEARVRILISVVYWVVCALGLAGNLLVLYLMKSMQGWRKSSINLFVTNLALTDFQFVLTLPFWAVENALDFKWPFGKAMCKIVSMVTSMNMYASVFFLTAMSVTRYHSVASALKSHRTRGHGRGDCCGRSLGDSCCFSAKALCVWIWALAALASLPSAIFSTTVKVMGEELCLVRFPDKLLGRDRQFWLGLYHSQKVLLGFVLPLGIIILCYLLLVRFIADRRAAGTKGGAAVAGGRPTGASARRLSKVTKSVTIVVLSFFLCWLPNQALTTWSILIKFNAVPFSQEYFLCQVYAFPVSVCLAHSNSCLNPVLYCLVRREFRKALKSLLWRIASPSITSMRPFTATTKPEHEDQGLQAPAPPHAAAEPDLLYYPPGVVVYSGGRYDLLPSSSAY
# T2: RXFP3 (relaxin family peptide receptor 3) on CHO-K1-RXFP3 cells (UniProt Q9NSD7 1-469, limits assumed)
# T2 construct: whole, on cells; also called GPCR135
# T2 sequence (looked up): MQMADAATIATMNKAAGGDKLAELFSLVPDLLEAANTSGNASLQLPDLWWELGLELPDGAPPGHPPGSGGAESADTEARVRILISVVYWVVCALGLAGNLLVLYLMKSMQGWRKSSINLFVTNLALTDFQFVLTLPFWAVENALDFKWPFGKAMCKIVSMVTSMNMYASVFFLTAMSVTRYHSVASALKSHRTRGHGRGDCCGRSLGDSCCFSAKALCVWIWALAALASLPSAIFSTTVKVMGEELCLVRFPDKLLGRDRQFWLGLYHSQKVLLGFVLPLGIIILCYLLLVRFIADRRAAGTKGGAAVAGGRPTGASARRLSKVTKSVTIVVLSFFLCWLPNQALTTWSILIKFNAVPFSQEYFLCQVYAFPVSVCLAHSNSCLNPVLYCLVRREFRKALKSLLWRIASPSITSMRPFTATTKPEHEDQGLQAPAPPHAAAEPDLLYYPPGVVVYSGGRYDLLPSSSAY
# What was measured:
# RXFP4 [1] = biological target: T3, RXFP4 (Homo sapiens, UniProt Q8TDU9); test: Inhibition of forskolin-induced cAMP activity in CHO-K1-RXFP4 cells (pCRE β-galactosidase reporter); assay type: cell-based; set-up: expressed in transfected cells
# Protocol: For agonist assays, cells were stimulated with forskolin (5 μM for RXFP3, 1 μM for RXFP4)±increasing concentrations of each peptide for 6 hours. Data were expressed as the % forskolin activity, whereby 100% was defined as forskolin alone and 0% as maximum agonist stimulation (1 μM Analogue 2 for RXFP3 and 1 μM Analogue 13 for RXFP4). Data were analysed and plotted using GraphPad Prism 9 and are expressed as the mean±SEM of the pooled data. Statistical analysis was conducted using one-way ANOVA with Uncorrected Fisher's LSD post-hoc analysis using GraphPad Prism 9.
# (§1) An additional analogue of INSL5 was utilised as a control, INSL5-A13, having an A chain (SEQ ID NO: 9) and a B chain (SEQ ID NO: 10) with a first disulfide bond between Cys 1 of the A chain and Cys 7 of the B chain, and a second disulfide bond between Cys 14 of the A chain and Cys 19 of the B chain:
# (§2) Competition binding and cAMP activity assay were conducted by a procedure analogous to that described above for Example 3. The results are shown in FIG. 24 (RXFP3) and FIG. 25 (RXFP4).
# RXFP4 [2] = biological target: T3, RXFP4; test: Eu-R3/I5 competition binding assay in CHO-K1-RXFP4 cells; set-up: expressed in transfected cells
# Protocol: An Eu-R3/15 competition binding assay in CHO-K1-RXFP4 cells was carried out.
# (§3) Competition binding curves for each peptide were performed in triplicate and each experiment was performed independently at least three times. Fluorescent measurements were carried out at excitation of 340 nm and emission of 614 nm on a BMG POLARstar plate reader (BMG Labtech, Melbourne, Australia). Pooled data were presented as mean±S.E.M. of specific binding and are fitted using a one-site binding curve in GraphPad Prism version 8 (GraphPad Inc., San Diego, USA). Statistical analyses were conducted using one-way analysis of variance with uncorrected Fisher's least significant difference (LSD) post-hoc analysis in GraphPad Prism version 9.
# as §1, §2
# RXFP3 [3] = biological target: T1, RXFP3; test: Eu-H3B1-22R competition binding assay in CHO-K1-RXFP3 cells; conditions: 5 nM Eu-H3B1-22R, mean ± SEM (n), Table 2
# Protocol: An Eu-H3B1-22R competition binding assay was conducted in CHO-K1-RXFP3 cells.
# as §3, §2
# RXFP3 [4] = biological target: T1, RXFP3; test: Inhibition of forskolin-induced cAMP activity in CHO-K1-RXFP3 cells (pCRE β-galactosidase reporter); assay type: cell-based; conditions: 5 μM forskolin, 6 hours, Table 2
# Protocol: Since RXFP3 is coupled to Gi/o proteins, peptides were tested for their ability to activate RXFP3 as measured via their ability to inhibit forskolin-induced cAMP activity in CHO-K1-RXFP3 or CHO-K1-RXFP4 cells transfected with a pCRE (cAMP Response Element) β-galactosidase reporter plasmid (as described in Belgi, A et al., Structure and function relationship of murine insulin-like peptide 5 (INSL5): free C-terminus is essential for RXFP4 receptor binding and activation. Biochemistry 2011, 50 (39), 8352-61; and Haugaard-Kedstrom, L. M et al., Synthesis and pharmacological characterization of a europium-labelled single-chain antagonist for binding studies of the relaxin-3 receptor RXFP3. Amino Acids 2015, 47 (6), 1267-71). For agonist assays, cells were stimulated with forskolin (5 μM for RXFP3, 1 μM for RXFP4)±increasing concentrations of each peptide for 6 hours. Data were expressed as the % forskolin activity, whereby 100% was defined as forskolin alone and 0% as maximum agonist stimulation (1 μM Analogue 2 for RXFP3 and 1 μM Analogue 13 for RXFP4). Data were analysed and plotted using GraphPad Prism 9 and are expressed as the mean±SEM of the pooled data. Statistical analysis was conducted using one-way ANOVA with Uncorrected Fisher's LSD post-hoc analysis using GraphPad Prism 9.
# as §2
# [5] = biological target: T4, RXFP4 (relaxin family peptide receptor 4) on CHO-K1-RXFP4 cells (UniProt Q8TDU9 1-374, limits assumed); test: competition with Eu-R3/I5 on CHO-K1-RXFP4 cells
# T4 construct: whole, on cells; also called INSL5 receptor
# [6] = biological target: T4, RXFP4 (relaxin family peptide receptor …); test: cell-based or functional assay
# [7] = biological target: T2, RXFP3 (relaxin family peptide receptor …); test: competition with Eu-H3B1-22R on CHO-K1-RXFP3 cells
# [8] = biological target: T4, RXFP4 (relaxin family peptide receptor …); test: competition with Eu-R3/I5 on CHO-K1-RXFP4 cells; remark: listed apart in the source
# [9] = biological target: T5, LgBiT-RXFP4 (HEK-LgBiT-RXFP4 crude membrane fractions) (UniProt Q8TDU9 1-374); test: NanoBiT competition with 2 nM SmBiT-R3/I5 on HEK-LgBiT-RXFP4 membranes
# T5 construct: Assayed as crude membrane fractions (25 µg protein) of HEK cells; not shown: LgBiT tag of NanoBiT
# T5 sequence (Q8TDU9 whole entry): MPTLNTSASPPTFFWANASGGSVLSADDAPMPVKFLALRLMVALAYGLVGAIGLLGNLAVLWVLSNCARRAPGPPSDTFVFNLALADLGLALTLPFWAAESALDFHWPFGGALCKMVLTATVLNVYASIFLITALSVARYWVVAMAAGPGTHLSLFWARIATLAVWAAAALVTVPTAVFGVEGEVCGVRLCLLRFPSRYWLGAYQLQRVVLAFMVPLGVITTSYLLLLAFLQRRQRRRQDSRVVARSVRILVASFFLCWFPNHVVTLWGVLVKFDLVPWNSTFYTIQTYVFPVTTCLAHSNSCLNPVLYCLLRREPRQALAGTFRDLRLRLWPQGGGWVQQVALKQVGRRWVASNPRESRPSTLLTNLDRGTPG
# T3 sequence (Q8TDU9 whole entry): as above
# T4 sequence (Q8TDU9 whole entry): as above
Molecule,cAMP pEC50 [6],pKi [9],other results
CC[C@H](C)[C@H](NC(=O)[C@H](Cc1ccc(O)cc1)NC(=O)[C@@H](NC(=O)[C@@H](NC(=O)[C@]1(C)CSSC[C@](C)(NC(=O)[C@H](CC(C)C)NC(=O)CNC(=O)[C@H](CO)NC(C)=O)C(=O)N[C@@H](Cc2ccc(O)cc2)C(=O)N[C@@H]([C@@H](C)CC)C(=O)N[C@@H](CCCNC(=N)N)C(=O)N1)C(C)C)[C@@H](C)CC)C(=O)N[C@@H](CO)C(=O)NCC(=O)NCC(=O)N[C@@H](CO)C(=O)N[C@@H](CCCNC(=N)N)C(=O)N[C@@H](Cc1c[nH]c2ccccc12)C(=O)O [Disulfide bridge stapled analogue] (Ac-SGL[αMeC]YIR[αMeC]VIYISGGSRW-OH; disulfide 4-8; C-terminus assumed),,,EC50 (RXFP4 [1]): 145 nM; Ki (RXFP4 [2]): 46.8 nM
"SGLEYIRTVIYISGGSRW-OH [Linear B-chain, S-G-L-E-Y-I-R-T-V-I-Y-I-S-G-G-S-R-W-OH]",,,"Eu-R3/I5 pKi (RXFP4 [2]; RXFP4, Table 5): No binding (3)"
CC[C@H](C)[C@@H]1NC(=O)[C@H](Cc2ccccc2)NC(=O)[C@H](CCC(=O)O)NC(=O)[C@H](CCCNC(=N)N)NC(=O)CNC(=O)[C@@H](NC(=O)[C@H](CC(C)C)NC(=O)[C@H](CCCNC(=N)N)NC(=O)[C@@H](NC(=O)CNC(=O)[C@H](Cc2ccc(O)cc2)NC(=O)[C@@H]2CCCN2C(=O)[C@H](C)NC(=O)[C@H](C)NC(=O)[C@@H](N)CCCNC(=N)N)C(C)C)CSSC[C@@H]2NC(=O)[C@@H](NC(=O)[C@H](CO)NC(=O)[C@H](CO)NC(=O)[C@H](CO)NC(=O)[C@H](CC(C)C)NC(=O)CNC(=O)[C@H](C)NC(=O)[C@H](CC(C)C)NC(=O)[C@@H](NC(=O)[C@@H](N)CC(=O)O)C(C)C)CSSC[C@H](NC(=O)CNC(=O)[C@H](Cc3c[nH]c4ccccc34)NC(=O)[C@H](CCCCN)NC2=O)C(=O)N[C@@H](CO)C(=O)N[C@@H](CCCCN)C(=O)N[C@@H](CO)C(=O)N[C@@H](CCC(=O)O)C(=O)N[C@@H]([C@@H](C)CC)C(=O)N[C@@H](CO)C(=O)N[C@@H](CO)C(=O)N[C@@H](CC(C)C)C(=O)N[C@H](C(=O)O)CSSC[C@@H](C(=O)NCC(=O)NCC(=O)N[C@@H](CO)C(=O)N[C@@H](CCCNC(=N)N)C(=O)N[C@@H](Cc2c[nH]c3ccccc23)C(=O)O)NC(=O)[C@H]([C@@H](C)O)NC(=O)[C@H](Cc2ccccc2)NC(=O)[C@H]([C@@H](C)CC)NC(=O)[C@H](C(C)C)NC(=O)[C@H](C)NC(=O)[C@H](CCCNC(=N)N)NC1=O [H3 relaxin],,,"cAMP pEC50 (RXFP4 [1]; RXFP4, CHO-K1-RXFP4 cells, 1 μM forskolin, 6 hours, Table 3): 8.94 ± 0.13 (4); Eu-H3B1-22R pKi (RXFP3 [3]): 7.64 ± 0.09 (4)^; cAMP pEC50 (RXFP3 [4]): 9.08 ± 0.07 (5)"
"SGLEYIRTVIYISGGSRW-OH (Residues numbered 7-24 after the native INSL5 B chain; also called control) [Linear B-chain (INSL5 B chain analogue, Formula IV)]",< 5,,binding result [5]: no binding
"SGRFFIRFVIFTSR (14 residues) [H3B10-22R13/17FF (Formula XIII, non-alpha-methylated analogue of Formula X)]",,,pKi [7]: 6.67; binding result [8]: no binding
Native INSL5 (human insulin-like peptide 5) (ligand) chain 1: ZDLQTLCCTDGCSMTDLSALC chain 2: KESVRLCGLEYIRTVIYICASSRW,8.34,8.47,pKi [5]: 8.43
"SGLKYIRDVIYISGASRW (lactam 4-8) [Lactam Bridge stapled analogue (INSL5 B-chain, Formula VII)]",,6.45,
"SGREFIRAVIFTSR (14 residues) [H3B10-22R13/17EA (Formula XII, truncated form of H3B1-22R)]",,,pKi [7]: 6.08; binding result [8]: no binding
"SGL[αMeF]YIR[αMeF]VIYISGGSRW (18-residue RXFP4 agonist; also called aF stapled analogue; πI5B) [αF stapled analogue (INSL5 B-chain, Formula V)]",7.06,7.51,pKi [5]: 6.8
SGL[αMeF]YIR[αMeF]VIYIEGGSRW (18-residue RXFP4 agonist with two αF residues and glutamic acid at residue 19 (numbering of native INSL5 B chain)) [πI5B7-24-GG-S19E],7.39,8.13,
"Ac-SGL[S5]YIR[S5]VIYISGASRW (staple 4-8) [Hydrocarbon stapled analogue (INSL5 B-chain, Formula VI)]",6.18,6.81,
"INSL5-A13: B7-24_G20/21 (two-chain G20/21 analogue) (ligand, GlyGly at positions B20 and B21; also called Formula III) chain 1: CTDGASMKDLSALC chain 2: CGLEYIRTVIYICGGSRW",8.93,8.64,
"INSL5-A13: B7-24 (reduced two chain analogue) (ligand, not fully specified; cysteine pairing not given here, also called Formula II) chain 1: CTDGASMKDLSALC chain 2: CGLEYIRTVIYICASSRW",8.08,8.06,
"Ac-SGL[αMeC]YIR[αMeC]VIYISGGSRW (disulfide 4-8, also called disulfide stapled analogue) [Disulfide bridge stapled analogue (INSL5 B-chain, Formula IX)]",6.84,,pKi [5]: 7.33
"INSL5-A13 (two-chain INSL5 analogue, RXFP4 agonist) (ligand, disulfide I:1-II:7, I:14-II:19, Disulfide bonds: Cys 1 of A chain to Cys 7 of B chain; Cys 14 of A chain to Cys 19 of B chain; also called Analogue 13; two chain agonist) chain 1: CTDGASMKDLSALC chain 2: KESVRLCGLEYIRTVIYICASSRW",8.1,8.11,pKi [5]: 7.46
